{
  "source": "patent US20210206880A1",
  "about": "(published 2021)",
  "binders": {"B1": {"name": "Nb60 HopQ-specific Nanobody (VHH)", "VHH": "QVQLQESGGGLVQPGGSLRLSCAASGFTFSRYAMSWVRQAPGKGPEWVSAINSPGGSTSYADSVKGRFTISRDNAKNTLYLQMNSLKPDDTAVYYCAKYERATEWGHTIVAVTPLLDGVHDYWGQGTQVTVSS", "notes": "also called cHopQ-specific Nanobody"}, "B2": {"name": "MbNb60^c7HopQ mut2 (N277K, T270R) (designed binder)", "chain": "QVQLVESGGGLVQTKTTTSVIDTTNDAQNLLTQAQTIVNTLKDYCPILIAKSSSSNGGTNNANTPSWQTAGGGKNSCATFGAEFSAASDMINNAQKIVQETQQLSANQPKNITQPHNLNLNSPSSLTALAQKMLKNAQSQAEILKLANQVESDFNKLSSGHLKDYIGKCDASAISSANMTMQNQKNNWGNGCAGVEETQSLLKTSAADFNNQTPQINQAQNLANTLIQELGNNTYEQLSRLLTNDNGTNSKTSAQAINQAVNNLNERAKRLAGGTTKSPAYQATLLALRSVLGLWNSMGYAVICGGYTKSPGENNQKDFHYTDENGNGTTINCGGSTNSNGTHSYNGTNTLKADKNVSLSIEQYEKIHEAYQILSKALKQAGLAPLNSKGEKLEAHVTTSKYGSLRLSCAASGFTFSRYAMSWVRQAPGKGPEWVSAINSPGGSTSYADSVKGRFTISRDNAKNTLYLQMNSLKPDDTAVYYCAKYERATEWGHTIVAVTPLLDGVHDYWGQGTQVTVSSHHHHHHEPEA", "notes": "also called MbNb60^cHopQmut2; MbNb60^c7HopQ N277K T270R"}, "B3": {"name": "MbNb60^c7HopQ mut3 (N277K, T270R, E197R) (designed binder)", "chain": "QVQLVESGGGLVQTKTTTSVIDTTNDAQNLLTQAQTIVNTLKDYCPILIAKSSSSNGGTNNANTPSWQTAGGGKNSCATFGAEFSAASDMINNAQKIVQETQQLSANQPKNITQPHNLNLNSPSSLTALAQKMLKNAQSQAEILKLANQVESDFNKLSSGHLKDYIGKCDASAISSANMTMQNQKNNWGNGCAGVERTQSLLKTSAADFNNQTPQINQAQNLANTLIQELGNNTYEQLSRLLTNDNGTNSKTSAQAINQAVNNLNERAKRLAGGTTKSPAYQATLLALRSVLGLWNSMGYAVICGGYTKSPGENNQKDFHYTDENGNGTTINCGGSTNSNGTHSYNGTNTLKADKNVSLSIEQYEKIHEAYQILSKALKQAGLAPLNSKGEKLEAHVTTSKYGSLRLSCAASGFTFSRYAMSWVRQAPGKGPEWVSAINSPGGSTSYADSVKGRFTISRDNAKNTLYLQMNSLKPDDTAVYYCAKYERATEWGHTIVAVTPLLDGVHDYWGQGTQVTVSSHHHHHHEPEA", "notes": "also called MbNb60^cHopQmut3; MbNb60^c7HopQ N277K T270R E197R"}, "B4": {"name": "MbNb60^cYgjkE2 (designed binder)", "chain": "QVQLVESGGGLVYKEETQSGLNNYARVVEKGQYDSLEIPAQVAASWESGRDDAAVFGFIDKEQLDKYVANGGKRSDWTVKFAENRSQDGTLLGYSLLQESVDQASYMYSDNHYLAEMATILGKPEEAKRYRQLAQQLADYINTCMFDPTTQFYYDVRIEDKPLANGCAGKPIVERGKGPEGWSPLFNGAATQANADAVVKVMLDPKEFNTFVPLGTAALTNPAFGADIYWRGRVWVDQFWFGLKGMERYGYRDDALKLADTFFRHAKGLTADGPIQENYNPLTGAQQGAPNFSWSAAHLYMLYNDFFRKQASGGGSGGGGSGGGGSGNADNYKNVINRTGAPQYMKDYDYDDHQRFNPFFDLGAWHGHLLPDGPNTMGGFPGVALLTEEYINFMASNFDRLTVWQDGKKVDFTLEAYSIPGALVQKLTAKDVQVEMTLRFATPRTSLLETKITSNKPLDLVWDGELLEKLEAKEGKPLSDKTIAGEYPDYQRKISATRDGLKVTFGKVRATWDLLTSGESEYQVHKSLPVQTEINGNRFTSKAHINGSTTLYTTYSHLLTAQEVSKEQMQIRDILARPAFYLTASQQRWEEYLKKGLTNPDATPEQTRVAVKAIETLNGNWRSPGGAVKFNTVTPSVTGRWFSGNQTWPWDTWKQAFAMAHFNPDIAKENIRAVFSWQIQPGDSVRPQDVGFVPDLIAWNLSPERGGDGGNWNERNTKPSLAAWSVMEVYNVTQDKTWVAEMYPKLVAYHDWWLRNRDHNGNGVPEYGATRDKAHNTESGEMLFTVKKDSLRLSCAASGFTFSRYAMSWVRQAPGKGPEWVSAINSPGGSTSYADSVKGRFTISRDNAKNTLYLQMNSLKPDDTAVYYCAKYERATEWGHTIVAVTPLLDGVHDYWGQGTQVTVSSHHHHHHEPEA", "notes": "also called Mb^Nb60cYgjkQE2"}},
  "key": {"MbNb207^cHopQ [1]": {"molecular_target": "T1, MbNb207^cHopQ", "T1 construct": "also called cHopQNbGFP207; 58 kDa Megabody", "assay": "co-crystal structure"}, "MbNb207^cHopQ [2]": {"molecular_target": "T1, MbNb207^cHopQ", "assay": "BLI (Octet), biotinylated MbNb207^cHopQ on streptavidin sensors"}},
  "data": [
    {"binder": "B1", "values": [
      {"measurement": "binding result", "setting": "MbNb207^cHopQ [1]", "value": "binds"}
    ]},
    {"binder": "B2", "values": [
      {"measurement": "binding result", "setting": "MbNb207^cHopQ [2]", "value": "binds"}
    ]},
    {"binder": "B3", "values": [
      {"measurement": "binding result", "setting": "MbNb207^cHopQ [2]", "value": "binds"}
    ]},
    {"binder": "B4", "values": [
      {"measurement": "binding result", "setting": "MbNb207^cHopQ [2]", "value": "binds"}
    ]}
  ]
}
